The test system of this series is T1, MBP-SphR (Pseudomonas aeruginosa (strain PAO1?)), ORF:ae0b4f1c.
T1 sequence: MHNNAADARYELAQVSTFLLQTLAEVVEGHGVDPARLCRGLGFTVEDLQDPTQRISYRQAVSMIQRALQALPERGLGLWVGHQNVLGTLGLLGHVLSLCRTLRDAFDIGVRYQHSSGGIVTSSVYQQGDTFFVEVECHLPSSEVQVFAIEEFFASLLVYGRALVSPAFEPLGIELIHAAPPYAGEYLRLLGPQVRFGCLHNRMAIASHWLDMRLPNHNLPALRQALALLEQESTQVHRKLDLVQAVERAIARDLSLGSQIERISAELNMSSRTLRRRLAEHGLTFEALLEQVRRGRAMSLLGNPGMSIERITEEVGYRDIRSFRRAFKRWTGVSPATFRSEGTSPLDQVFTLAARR
Description: competition. To be noted: 10 mM Tris-HCl pH 7.5, 50 mM KCl, 1 mM DTT, 1 mM EDTA, 3 mM MgCl2, 50 ug/ml BSA, 4% glycerol, 0.05% NP-40, 50 ng/ul poly(dI-dC), 30 C, 30 min.

Take “GGTTGCCACTGTAGTGCCAGGGTGGTGGAGTCGAGGGGGGCGTAGCGGACAGGAAGGGGGTGAGCGCCGGCCATCCTGCATGGACGGCAAGGCAGGCGGGTAAAAAAAGGCCGCCTGCGT (double strand) [cerN promoter -200 to -81, unlabeled competitor]”: the binding entry was “binds”.
